In PMC10397247 one finds interaction score data, which are given here for four molecules.

The target in one assay is T1, 4H454-bN.
T1 chain: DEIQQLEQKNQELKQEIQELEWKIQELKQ
Kind of assay: two-hybrid library CCNG1.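 Also: natural log of median RNA to DNA barcode read ratio; higher means stronger binding.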

The target in another assay is T2, 4H568-bN.
T2 chain: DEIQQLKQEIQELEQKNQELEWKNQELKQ
Kind of assay: two-hybrid library CCNG1.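 Also: natural log of median RNA to DNA barcode read ratio; higher means stronger binding.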

A further assay addresses T3, 4H607-bN.
T3 chain: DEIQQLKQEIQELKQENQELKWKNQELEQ
The assay can be described thus: two-hybrid library CCNG1.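 Also: natural log of median RNA to DNA barcode read ratio; higher means stronger binding.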

For another assay, the target named is T4, 4H687-bN.
T4 chain: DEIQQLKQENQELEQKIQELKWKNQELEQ
The assay can be described thus: two-hybrid library CCNG1.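 Also: natural log of median RNA to DNA barcode read ratio; higher means stronger binding.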

For another assay, the target named is T5, 4H717-bN.
T5 chain: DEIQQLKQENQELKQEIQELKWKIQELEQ
Kind of assay: two-hybrid library CCNG1.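 Also: natural log of median RNA to DNA barcode read ratio; higher means stronger binding.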

For the next assay, the target named is T6, 4H72-bN.
T6 chain: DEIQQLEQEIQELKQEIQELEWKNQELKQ
The assay can be described thus: two-hybrid library CCNG1.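 Also: natural log of median RNA to DNA barcode read ratio; higher means stronger binding.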

The target in the next assay is T7, 4H754-bN.
T7 chain: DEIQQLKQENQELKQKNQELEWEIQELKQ
Kind of assay: two-hybrid library CCNG1.

Another assay deals with T8, 4H797-bN.
T8 chain: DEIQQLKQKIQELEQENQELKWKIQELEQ
Kind of assay: two-hybrid library CCNG1.

For a further assay, the target named is T9, 4H883-bN.
T9 chain: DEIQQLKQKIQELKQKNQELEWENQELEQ
Kind of assay: two-hybrid library CCNG1.

In another assay the target is T10, 4H908-bN.
T10 chain: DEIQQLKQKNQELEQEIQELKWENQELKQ
Kind of assay: two-hybrid library CCNG1.

The target of another assay is T11, 4H918-bN.
T11 chain: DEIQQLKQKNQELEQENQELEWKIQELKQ
Kind of assay: two-hybrid library CCNG1.

The next assay concerns the target T12, 4H953-bN.
T12 chain: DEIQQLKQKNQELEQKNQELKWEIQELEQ
The assay can be described thus: two-hybrid library CCNG1.

The target of another assay is T13, 4H967-bN.
T13 chain: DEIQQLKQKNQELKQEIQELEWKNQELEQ
Kind of assay: two-hybrid library CCNG1.

The target of the next assay is T14, 4H3940-AA.
T14 chain: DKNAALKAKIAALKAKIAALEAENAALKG
Kind of assay: two-hybrid library CCmax.

The next assay deals with T15, 4H510-AA.
T15 chain: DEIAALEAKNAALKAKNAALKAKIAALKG
The assay can be described thus: two-hybrid library CCmax. The note with it: mean of both orientations.

Another assay concerns the target T16, 4H775-AA.
T16 chain: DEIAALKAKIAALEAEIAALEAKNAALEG
The assay can be described thus: two-hybrid library CCmax. The note with it: mean of both orientations.

Another assay addresses T17, 4H816-AA.
T17 chain: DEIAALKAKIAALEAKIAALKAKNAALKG
The assay can be described thus: two-hybrid library CCmax. The note with it: mean of both orientations.

The target of the next assay is T18, 4H87-AA.
T18 chain: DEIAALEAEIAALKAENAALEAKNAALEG
The assay can be described thus: two-hybrid library CCmax. The note with it: mean of both orientations.

For a further assay, the target named is T19, APC5009-AA.
T19 chain: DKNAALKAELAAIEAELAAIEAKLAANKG
The assay can be described thus: two-hybrid library CCmax.

The next assay concerns the target T20, APC542-AA.
T20 chain: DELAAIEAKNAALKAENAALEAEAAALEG
Kind of assay: two-hybrid library CCmax. The note with it: mean of both orientations.

For the next assay, the target named is T21, APC5531-AA.
T21 chain: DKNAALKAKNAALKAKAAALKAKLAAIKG
The assay can be described thus: two-hybrid library CCmax. The settings on record: mean of both orientations.

Another assay addresses T22, APC6088-AA.
T22 chain: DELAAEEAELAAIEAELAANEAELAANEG
The assay can be described thus: two-hybrid library CCmax. The settings on record: mean of both orientations.

Another assay has as its target T23, APC7524-AA.
T23 chain: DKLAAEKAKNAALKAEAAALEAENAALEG
The assay can be described thus: two-hybrid library CCmax. The settings on record: mean of both orientations.

The target of the next assay is T24, APC8401-AA.
T24 chain: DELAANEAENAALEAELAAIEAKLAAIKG
Kind of assay: two-hybrid library CCmax. The settings on record: mean of both orientations.

The next assay deals with T25, APC8516-AA.
T25 chain: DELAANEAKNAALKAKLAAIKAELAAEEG
Kind of assay: two-hybrid library CCmax. The settings on record: mean of both orientations.

The target of a further assay is T26, APC9141-AA.
T26 chain: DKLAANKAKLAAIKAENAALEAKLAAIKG
Kind of assay: two-hybrid library CCmax. The note with it: mean of both orientations.

In a further assay the target is T27, APC9182-AA.
T27 chain: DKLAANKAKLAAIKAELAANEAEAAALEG
The assay can be described thus: two-hybrid library CCmax. The settings on record: mean of both orientations.

Another assay deals with T28, APC9291-AA.
T28 chain: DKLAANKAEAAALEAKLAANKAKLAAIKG
The assay can be described thus: two-hybrid library CCmax. The note with it: mean of both orientations.

The target of another assay is T29, APC9806-AA.
T29 chain: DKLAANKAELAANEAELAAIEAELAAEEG
Kind of assay: two-hybrid library CCmax. The settings on record: mean of both orientations.

The next assay deals with T30, 4H2961-AA.
T30 chain: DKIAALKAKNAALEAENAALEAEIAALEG
The assay can be described thus: two-hybrid library CCmax. The note with it: mean of both orientations.

The target of another assay is T31, 4H3049-AA.
T31 chain: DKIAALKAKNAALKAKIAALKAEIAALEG
The assay can be described thus: two-hybrid library CCmax. The note with it: mean of both orientations.

A further assay addresses T32, 4H3094-AA.
T32 chain: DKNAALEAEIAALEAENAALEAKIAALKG
Kind of assay: two-hybrid library CCmax. The note with it: mean of both orientations.

The next assay deals with T33, 4H324-AA.
T33 chain: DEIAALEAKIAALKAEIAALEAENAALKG
Kind of assay: two-hybrid library CCmax. The note with it: mean of both orientations.

A further assay concerns the target T34, 4H341-AA.
T34 chain: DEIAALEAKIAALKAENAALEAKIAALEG
Kind of assay: two-hybrid library CCmax. The note with it: mean of both orientations.

The target in a further assay is T35, 4H3449-AA.
T35 chain: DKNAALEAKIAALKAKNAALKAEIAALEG
Kind of assay: two-hybrid library CCmax. The settings on record: mean of both orientations.

Another assay concerns the target T36, 4H3619-AA.
T36 chain: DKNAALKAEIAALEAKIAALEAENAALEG
Kind of assay: two-hybrid library CCmax. The note with it: mean of both orientations.

The target in a further assay is T37, 4H3629-AA.
T37 chain: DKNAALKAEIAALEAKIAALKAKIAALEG
The assay can be described thus: two-hybrid library CCmax. The settings on record: mean of both orientations.

Another assay concerns the target T38, 4H3777-AA.
T38 chain: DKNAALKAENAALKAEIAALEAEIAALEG
The assay can be described thus: two-hybrid library CCmax. The settings on record: mean of both orientations.

For another assay, the target named is T39, 4H380-AA.
T39 chain: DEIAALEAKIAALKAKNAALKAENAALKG
Kind of assay: two-hybrid library CCmax. The note with it: mean of both orientations.

The next assay deals with T40, 4H3915-AA.
T40 chain: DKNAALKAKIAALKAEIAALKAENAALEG
The assay can be described thus: two-hybrid library CCmax. The settings on record: mean of both orientations.

Another assay deals with T41, 4H3974-AA.
T41 chain: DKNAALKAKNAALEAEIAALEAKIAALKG
The assay can be described thus: two-hybrid library CCmax. The note with it: mean of both orientations.

Another assay deals with T42, 4H432-AA.
T42 chain: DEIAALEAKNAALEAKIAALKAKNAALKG
The assay can be described thus: two-hybrid library CCmax. The settings on record: mean of both orientations.

The target in a further assay is T43, 4H446-AA.
T43 chain: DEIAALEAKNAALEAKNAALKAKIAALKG
Kind of assay: two-hybrid library CCmax. The settings on record: mean of both orientations.

The next assay addresses T44, 4H63-AA.
T44 chain: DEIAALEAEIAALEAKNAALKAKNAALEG
The assay can be described thus: two-hybrid library CCmax. The note with it: mean of both orientations.

B1: 4H454-bN (peptide)
chain: DEIQQLEQKNQELKQEIQELEWKIQELKQ
As for B1, the interaction score with 4H454-bN is -0.79; with 4H568-bN, 0.196; with 4H607-bN, 0.145; with 4H687-bN, 1.02; in the assay with 4H717-bN, 0.0875; in the assay with 4H72-bN, 0.494. Moreover, the interaction score is -0.587 with 4H754-bN; -0.833 with 4H797-bN; -0.143 with 4H883-bN; 0.201 in the assay with 4H908-bN; -0.834 with 4H918-bN; -1.26 with 4H953-bN. In addition, the interaction score in the assay with 4H967-bN was -0.354.

B2: 4H3940-AA (peptide)
chain: DKNAALKAKIAALKAKIAALEAENAALKG
As for B2, the interaction score with 4H3940-AA was 0.422; in the assay with 4H510-AA it was -1.47; in the assay with 4H775-AA it was -0.249; in the assay with 4H816-AA it was -0.0778; with 4H87-AA, -0.615.

B3: APC5009-AA (peptide)
chain: DKNAALKAELAAIEAELAAIEAKLAANKG
Consider B3, for which the interaction score was -1.19 in the assay with APC5009-AA; -1.44 with APC542-AA; -0.726 in the assay with APC5531-AA; -1.37 with APC6088-AA; -1.47 with APC7524-AA; -1.26 with APC8401-AA. Also, the interaction score with APC8516-AA is -1.31; with APC9141-AA, -1.42; in the assay with APC9182-AA, -1.29; in the assay with APC9291-AA it was -1.51; with APC9806-AA it was -1.58.

B4: 4H2947-AA (peptide)
chain: DKIAALKAKNAALEAEIAALEAENAALEG
Turning to B4, the interaction score with 4H2961-AA is -2.03; with 4H3049-AA it was -0.853; with 4H3094-AA it was 1.06; in the assay with 4H324-AA, -1.49; with 4H341-AA it was -1.12; with 4H3449-AA it was -0.39. For the same molecule, the interaction score with 4H3619-AA is -1.85; with 4H3629-AA it was -1.56; in the assay with 4H3777-AA it was -1.93; with 4H380-AA, -1.17; with 4H3915-AA it was -1.59; in the assay with 4H3974-AA, -1.36. Also, the figures for the interaction score in the assay with 4H432-AA, in the assay with 4H446-AA and with 4H63-AA were 2.09, -0.0537 and -1.61, respectively.
